These results are taken from US12723100 (CSPC MEGALITH BIOPHARMACEUTICAL, dated 2026).

Assay [1] has as its target T1, full-length human Nectin-4 on cells (human, UniProt Q96NY8 32-510).
T1 sequence: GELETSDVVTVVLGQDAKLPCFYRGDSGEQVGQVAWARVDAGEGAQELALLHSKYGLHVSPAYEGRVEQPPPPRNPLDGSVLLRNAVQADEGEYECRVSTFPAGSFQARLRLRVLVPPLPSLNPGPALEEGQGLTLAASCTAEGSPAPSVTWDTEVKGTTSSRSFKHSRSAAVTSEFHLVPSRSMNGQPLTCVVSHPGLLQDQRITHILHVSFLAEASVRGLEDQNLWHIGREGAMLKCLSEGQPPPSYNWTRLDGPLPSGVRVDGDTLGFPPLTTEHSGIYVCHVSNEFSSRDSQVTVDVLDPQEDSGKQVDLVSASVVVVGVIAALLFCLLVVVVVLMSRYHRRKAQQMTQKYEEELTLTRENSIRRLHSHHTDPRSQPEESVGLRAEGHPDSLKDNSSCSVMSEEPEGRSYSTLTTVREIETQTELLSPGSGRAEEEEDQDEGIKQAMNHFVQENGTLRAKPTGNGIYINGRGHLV
In words: cell-based or functional assay.

For assay [2], the target named is T1, full-length human Nectin-4 on cells. In words: flow cytometry, CHO-Nectin-4 cells. The procedure: (§1) The binding specificity of the disclosed anti-Nectin-4 antibodies was also assessed by FACS. Briefly, CHO-Nectin-4 cells (vs. parental CHO cells) or endogenous cell lines expressing Nectin-4 (T-47D) were incubated with dilutions of purified recombinant antibodies. Cells were washed, and specific antibody binding was detected with Alexa 647 labeled goat anti-mouse IgG antibody. Flow cytometric analysis was performed on a flow cytometry instrument (Intellicyte, IQue plus, Sartorius).
(§2) N4_mAb 1 to N4_mAb 8 antibodies bind to CHO-Nectin-4 cells and SKBR3 cells by FACS.

For assay [3] the target is unchanged. In words: flow cytometry, SKBR3 cells (endogenous Nectin-4). The procedure: as §1, §2
For orientation: Flow cytometry measures light scatter and fluorescence of single cells or particles in a stream.

Assay [4] has as its target T2, cynomolgus monkey Nectin-4 (cynomolgus monkey, UniProt Q96NY8 32-510 (human entry)).
T2 construct: Transiently expressed on 293T cells; also called Cyno Nectin-4
T2 chain: T1 sequence with V39A, I230V, A437T
Nature of the assay: flow cytometry, transfected 293T cells; +++ EC50 less than 5 nM. As for the experimental part: CDNAs encoding Nectin-4 protein from cynomolgus monkey (SEQ ID NO: 62), rat (SEQ ID NO: 63), or mouse (SEQ ID NO: 64) were separately cloned into a pcDNA3.1-based mammalian expression plasmid. The respective plasmids were transfected to human 293T cells in a similar way described in Example 6. The binding EC50 of disclosed human Nectin-4 antibodies to species-specific Nectin-4 transiently expressed on 293T cell surface was measured by flow cytometry.

Assay [5] concerns the target T3, recombinant human Nectin4-His protein (human, UniProt Q96NY8 32-349).
T3 construct: Analyte of the SPR assay; May be the same protein as m12; also called human Nectin-4 ECD; not shown: His tag
T3 sequence: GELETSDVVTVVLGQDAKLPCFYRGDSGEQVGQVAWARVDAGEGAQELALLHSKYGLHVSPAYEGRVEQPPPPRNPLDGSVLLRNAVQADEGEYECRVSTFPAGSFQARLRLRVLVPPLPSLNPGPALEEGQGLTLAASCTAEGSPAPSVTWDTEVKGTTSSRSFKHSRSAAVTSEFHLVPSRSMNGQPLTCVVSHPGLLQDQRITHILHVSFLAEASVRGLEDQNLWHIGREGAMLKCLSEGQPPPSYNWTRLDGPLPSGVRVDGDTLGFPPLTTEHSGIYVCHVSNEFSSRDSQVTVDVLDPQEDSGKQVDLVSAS
In words: SPR (BIAcore 3000), antibody captured by anti-human IgG, Nectin4-His as analyte. As for the experimental part: The binding kinetics of the disclosed anti-Nectin-4-specific antibodies to recombinant human Nectin-4 was determined by Surface plasmon resonance (SPR) using BIAcore 3000 system. Briefly, CM5 chip was immobilized via amine coupling chemistry with anti-human IgG antibody (GE, Cat No BR-1000-12, lot 10283568) following the application wizards on Flow cell 4. Flow cell 3 remained unmodified to serve as a reference cell for subtraction of systematic instrument noise and drift. Run Fc4-3 detection with double blank (Fc3 and blank analyte buffer). Antibody samples were diluted to 1 ug/mL in HBS-EP and injected at a flow rate of 10 ul/min for 1 minute. Analyte recombinant human Nectin4-His protein was diluted from 10 to 0.156 nM ([…], 5 points to 0 nM in HBS-EP buffer) and injected at 50 uL/minute for 2 minutes, followed by 6 minutes dissociation. All the analyses were performed with double blanks, Fc3 and blank analyte buffer, to reduce the background. Data were analyzed using BIAevaluation software (version 4.1.1) by 1:1 binding with mass transfer model with global fit to determine apparent binding kinetics.
For orientation: SPR reads the build-up and loss of mass on a sensor chip optically.

For assay [6], the target named is T1, full-length human Nectin-4 on cells. Nature of the assay: flow cytometry competition on CHO-Nectin-4 cells; competitor biotinylated human Nectin-1-His. The procedure: The ability of disclosed Nectin4-specific antibodies to block Nectin-1 binding to Nectin-4 expressing cells (CHO cells transfected with human Nectin-4) was determined by FACS. Briefly, CHO-Nectin-4 cells were incubated with dilutions of the disclosed Nectin-4 purified recombinant antibodies. Then, biotinylated human Nectin-1 with His tag (ACROBiosystems, catalog number: PV1-H5223, lot: 733-38GS1-47, 0.75 ug/ml) was added to the plate. After 30-minute incubation, cells were washed, followed by adding Streptavidin Alexa 647 (1:1000) to the samples. After a 30 minute incubation, the samples were analyzed on a flow cytometry instrument (Intellicyte, IQue plus, Sartorius) for Nectin-1 blocking activity. The positive control antibody used in this blocking assay is a reference antibody (known to be a recombinant Nectin-4 specific antibody, made by Novarock Biotherapeutics, lot: 03042020KD).

Numbering of substitutions follows the chain as printed. Bounds are passed on as bounds.

B1: N4_mAb 3 (antibody, human IgG1, V domains shown)
VH: EVQLQQSGAELVKPGASVKLSCTVSGFNIKDTYMHWVKQRPEQGLEWIGRIDPANGNTKYDPKFQGKATIIADKASNTAYLQLSSLTSEDAAVYYCAHYYGSSYFAMDCWGQGTSVTVSS
VL: DIVMTQSHKFMSTSVGDRVSITCKASQDVSTAVAWYQQKPGQSPKLLIYWASTRHTGVPDRFTGSGSGTDYTLTISSVQTEDLALYYCQQHYSTPLTFGAGTKLELK
notes: Tested as chimera (human IgG1/kappa constants); not shown: human IgG1 constant region (Uniprot P01857); human Kappa light chain constant region (UniProt P01834)
B1: in assay [1], the “Endocytosis EC50 (cell killing with MMAF-conjugated Fab anti-hFc), Nectin-4-CHO cells” value turned out to be 0.53 nM. Besides, in assay [1], the “Endocytosis EC50 (cell killing with MMAF-conjugated Fab anti-hFc), SKBR3 cells” value is 0.63 nM. The EC50 in assay [2] was 0.75 nM; in assay [3], 45 nM; in assay [4], less than 5 nM; in assay [6], 0.3 nM. Besides, the Kd in assay [5] worked out at 17.2 nM.

By EC50 is commonly meant the concentration giving half of the maximal effect. Usually Kd stands for the equilibrium constant for the complex coming apart.
